Measured values from the supplement of paper PMC6755084.

Each sequence was assayed on F1*sub RNA substrate (template-directed ligation) (assay: fraction ligated after 30 min (ligated reads / total reads); higher = more ligase activity; sequences stand for … in GAGACCGCAACTGAAAAGTTGT…AGTTCTGCACGTAGAAGCAAAAGGC). Settings: 42 °C.
How it was run: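 Templates from an oligo pool were PCR-amplified, transcribed with T7 and gel-purified to give the ribozyme variants. Ligated and unligated products were separated on gel, reverse transcribed using barcoded primers, and read on a MiSeq. A quality filter of ≥20 was applied to core bases. Fraction ligated was taken as ligated reads as a share of all reads per variant.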

In order of rising fraction ligated:
1. TATCACTTGTGTAAGACACTTTGTGGGTTGA [3d1794]  0.00464
2. TATCACTTGTGTAAGACACTTGGAGGGTTGA [3d1789]  0.011
3. TATCACTTGTGTAAGACACTTTGGTGGGTTG [3d1802]  0.0157
4. TATCACTTGTGTAAGACACTTGGTGGGTTGA [3d1788]  0.0212
5. TATCACTTGTGTAAGACACTTTGGAGGGTTG [3d1805]  0.0238
6. TATCACTTGTGTAAGACACTTTGAGGGTTGA [3d1795]  0.0251
7. TATCACTTGTGTAAGACACTTTGGTGGGTTA [3d1801]  0.0254
8. TATCACTTGTGTAAGACACTTTGGTGGTTGA [3d1800]  0.0267
9. TATCACTTGTGTAAGACACTTGGATGGTTGA [3d1790]  0.0286
10. TATCACTTGTGTAAGACACTTTGATGGTTGA [3d1796]  0.0289
11. TATCACTTGTGTAAGACACTTTGGAGGTTGA [3d1803]  0.0314
12. TATCACTTGTGTAAGAACTTTGGAGGGTTGA [3d1768]  0.0385
13. TATCACTTGTGTAAGACACTTTGGAGGGTTA [3d1804]  0.0394
14. TATCACTTGTGTAAGACATTTGGAGGGTTGA [3d1782]  0.0398
15. TATCACTTGTGTAAGACACTTTGGGGGTTGA [3d1799]  0.0501
16. TATCACTTGTGTAAGACACTTTGATGGGTTA [3d1797]  0.0515
17. TATCACTTGTGTAAGACATTTGGTGGGTTGA [3d1781]  0.0614
18. TATCACTTGTGTAAGAACTTTGGATGGTTGA [3d1769]  0.0688
19. TATCACTTGTGTAAACACTTTGGAGGGTTGA [3d1750]  0.0713
20. TATCACTTGTGTAAGAACTTTGGTGGGTTGA [3d1767]  0.0854
21. TATCACTTGTGTAAGACACTTTATGGGTTGA [3d1793]  0.0875
22. TATCACTTGTGTAAACACTTTGGTGGGTTGA [3d1749]  0.0929
23. TATCACTTGTGTAAGACACTTTGGATGGTTA [3d1806]  0.101
24. TATCACTTGTGAAGACACTTTGGTGGGTTGA [3d1726]  0.102
25. TATCACTTGTGTAAGACACTTTGGATGGTTG [3d1807]  0.115
26. TATCACTTGTGTAAGCACTTTGGTGGGTTGA [3d1759]  0.117
27. TATCACTTGTGTAAGCACTTTGGAGGGTTGA [3d1760]  0.121
28. TATCACTTGTGTAAGACCTTTGGAGGGTTGA [3d1775]  0.137
29. TATCACTTGTGTAAGACCTTTGGTGGGTTGA [3d1774]  0.157
30. TATCACTTGTGTAAGACATTTGGATGGTTGA [3d1783]  0.169
31. TATCACTTGTGTAAGACACTTTGGATGGTTGA [2d191]  0.198
32. TATCACTTGTGTAAGACCTTTGGATGGTTGA [3d1776]  0.204
33. TATCACTTGTGAAGACACTTTGGATGGTTGA [3d1728]  0.243
34. TATCACTTGTGTAAGCACTTTGGATGGTTGA [3d1761]  0.256
35. TATCACTTGTGTAAACACTTTGGATGGTTGA [3d1751]  0.328
36. TATCACTTGTGTAAGACACTTGGATGGGTTA [3d1791]  0.349
37. TATCACTTGTGTAAGACATTTGATGGGTTGA [3d1780]  0.494
38. TATCACTTGTGTAAGACACTTTGATGGGTTG [3d1798]  0.544
39. TATCACTTGTGTAAGACACTTTGGATGGGTT [3d1808]  0.615
40. TATCACTTGTGTAAGCCTTTGGATGGGTTGA [3d1755]  0.76
41. TATCACTTGTGTAAGAACTTTGGATGGGTTA [3d1770]  0.771
42. TATCACTTGTGTAAGACACTGGATGGGTTGA [3d1786]  0.792
43. TATCACTTGTGTAAGACACTTGATGGGTTGA [3d1787]  0.8
44. TATCACTTGTGTAAGACACTTGGATGGGTTG [3d1792]  0.801
45. TATCACTTGTGTAAACACTTTGGATGGGTTA [3d1752]  0.805
46. TATCACTTGTGTAAGCACTTGGATGGGTTGA [3d1757]  0.805
47. TATCACTTGTGTAAACCTTTGGATGGGTTGA [3d1745]  0.807
48. TATCACTTGTGTAAGACCTTTGGATGGGTTA [3d1777]  0.81
49. TATCACTTGTGTAAGCACTTTGATGGGTTGA [3d1758]  0.811
50. TATCACTTGTGTAAGACCTTTGGATGGGTTG [3d1778]  0.812
51. TATCACTTGTGTAAACACTTGGATGGGTTGA [3d1747]  0.816
52. TATCACTTGTGTAAGACCTTTGATGGGTTGA [3d1773]  0.819
53. TATCACTTGTGTAAGACATTTGGATGGGTTA [3d1784]  0.822
54. TATCACTTGTGTAGAACTTTGGATGGGTTGA [3d1734]  0.822
55. TATCACTTGTGAAGACACTTTGGATGGGTTA [3d1729]  0.823
56. TATCACTTGTGAAGACCTTTGGATGGGTTGA [3d1722]  0.823
57. TATCACTTGTGTAAGACACTTTGGATGGGTTA [2d192]  0.823
58. TATCACTTGTGTAGACACTTTGATGGGTTGA [3d1738]  0.824
59. TATCACTTGTGTAGACACTTGGATGGGTTGA [3d1737]  0.826
60. TATCACTTGTGTAAACACTTTGATGGGTTGA [3d1748]  0.831
61. TATCACTTGTGTAAGCACTTTGGATGGGTTA [3d1762]  0.831
62. TATCACTTGTGTAAACATTTGGATGGGTTGA [3d1746]  0.833
63. TATCACTTGTGTAAGAACTTTGATGGGTTGA [3d1766]  0.834
64. TATCACTTGTGTAAGACATTTGGATGGGTTG [3d1785]  0.838
65. TATCACTTGTGTAAGAACTTGGATGGGTTGA [3d1765]  0.84
66. TATCACTTGTGAGACACTTTGGATGGGTTGA [3d1718]  0.841
67. TATCACTTGTGTAACACTTTGGATGGGTTGA [3d1732]  0.841
68. TATCACTTGTGAAGCACTTTGGATGGGTTGA [3d1720]  0.845
69. TATCACTTGTGTAAGACACTTTGGATGGGTTG [2d193]  0.845
70. TATCACTTGTGTAAGACATTGGATGGGTTGA [3d1779]  0.848
71. TATCACTTGTGTAAGAACTTTGGATGGGTTG [3d1771]  0.85
72. TATCACTTGTGTAAGCACTTTGGATGGGTTG [3d1763]  0.851
73. TATCACTTGTGTAAGCATTTGGATGGGTTGA [3d1756]  0.851
74. TATCACTTGTGAAGACACTTTGGATGGGTTGA [2d180]  0.853
75. TATCACTTGTGAAGACACTTTGGATGGGTTG [3d1730]  0.854
76. TATCACTTGTGAAGACATTTGGATGGGTTGA [3d1723]  0.855
77. TATCACTTGTGTAAAACTTTGGATGGGTTGA [3d1744]  0.856
78. TATCACTTGTGTAAGACCTTGGATGGGTTGA [3d1772]  0.856
79. TATCACTTGTGTAAACACTTTGGATGGGTTG [3d1753]  0.859
80. TATCACTTGTGTAAGACACTTTGGATGGGTTGA [1d10]  0.859
81. TATCACTTGTGTAAGAATTTGGATGGGTTGA [3d1764]  0.863
82. TATCACTTGTGTAAGACTTTGGATGGGTTGA [3d1754]  0.868
